Results from PMC6884004.

How the values were obtained:
[1] = biological target: synthetic MTED peptide (MT elimination domain of Drosophila Efa6) (Drosophila melanogaster); assay: pull-down; MTED or scrambled peptide coupled via the N-terminal amine to cyanogen bromide-activated Sepharose beads (5 ng peptide/μl beads); 15 μM porcine brain tubulin (un-polymerised GDP-tubulin); BRB80 with 0.2% Tween 20, 30 min, 20°C; five washes; SDS-PAGE band intensity compared with uncoated beads
[2] = biological target: Full length human MCAK (mitotic centromere-associated kinesin) (human) (UniProt Q99661); assay: pull-down; full length human MCAK coupled (1 µg/µl beads) to cyanogen bromide-activated Sepharose beads via lysines or the N-terminal amine; beads pre-incubated with 5 mM AMPPNP or ADP for 30 min at 20°C; 15 μM porcine brain tubulin, 30 min, 20°C; nucleotide kept in the washing buffer; SDS-PAGE band intensity compared with uncoated beads
[3] = biological target: porcine brain tubulin (un-polymerised GDP-tubulin) (porcine) (UniProt P02550)
[4] = biological target: GMPCPP-stabilised, rhodamine-labeled microtubules grown from porcine brain tubulin (porcine) (UniProt P02550); assay: TIRF microscopy of GFP-tagged protein on surface-adhered microtubules; GMPCPP-stabilised rhodamine-labeled MTs adhered to flow chambers; 20 nM Efa6-ΔCterm::GFP in BRB20 pH 6.9, 75 mM KCl, 0.05% Tween20, 0.1 mg/ml BSA, or 20 nM MCAK::GFP in the same buffer plus 1 mM ATP and 1 mM taxol; mean GFP intensity on individual MTs

“porcine brain tubulin (un-polymerised GDP-tubulin) (from UniProt P02550 1-451; P02554 1-445) (complex)” gave a fold tubulin pulled down against beads coated with scrambled peptide [1] of 5 fold, a fold tubulin pulled down against uncoated beads [1] of 3 fold and a fold tubulin pulled down against uncoated beads (with AMPPNP or ADP) [2] of 1.5 fold.

B1: synthetic MTED peptide (MT elimination domain of Drosophila Efa6) (peptide)
peptide: APRFEAYMMTGDLILNLSRT
In the case of B1, the fold decrease in amount of MT polymer in the MT growth assay (30 μM tubulin with 30 μM MTED peptide, against no peptide) [3] is reported as 10 fold.

B2: MCAK::GFP (His6-MCAK::EGFP-StrepII) (enzyme)
chain: MAMDSSLQARLFPGLAIKIQRSNGLIHSANVRTVNLEKSCVSVEWAEGGATKGKEIDFDDVAAINPELLQLLPLHPKDNLPLQENVTIQKQKRRSVNSKIPAPKESLRSRSTRMSTVSELRITAQENDMEVELPAAANSRKQFSVPPAPTRPSCPAVAEIPLRMVSEEMEEQVHSIRGSSSANPVNSVRRKSCLVKEVEKMKNKREEKKAQNSEMRMKRAQEYDSSFPNWEFARMIKEFRATLECHPLTMTDPIEEHRICVCVRKRPLNKQELAKKEIDVISIPSKCLLLVHEPKLKVDLTKYLENQAFCFDFAFDETASNEVVYRFTARPLVQTIFEGGKATCFAYGQTGSGKTHTMGGDLSGKAQNASKGIYAMASRDVFLLKNQPCYRKLGLEVYVTFFEIYNGKLFDLLNKKAKLRVLEDGKQQVQVVGLQEHLVNSADDVIKMIDMGSACRTSGQTFANSNSSRSHACFQIILRAKGRMHGKFSLVDLAGNERGADTSSADRQTRMEGAEINKSLLALKECIRALGQNKAHTPFRESKLTQVLRDSFIGENSRTCMIATISPGISSCEYTLNTLRYADRVKELSPHSGPSGEQLIQMETEEMEACSNGALIPGNLSKEEEELSSQMSSFNEAMTQIRELEEKAMEELKEIIQQGPDWLELSEMTEQPDYDLETFVNKAESALAQQAKHFSALRDVIKALRLAMQLEEQASRQISSKKRPQ
For B2, the fold of molecules on MTs against Efa6-ΔCterm::GFP at the same concentration [4] was > 2 fold.
